Test [1] addresses T1, human GIP receptor (human, UniProt P48546 22-466).
T1 construct: whole, on cells; also called hGIPR
T1 sequence (looked up): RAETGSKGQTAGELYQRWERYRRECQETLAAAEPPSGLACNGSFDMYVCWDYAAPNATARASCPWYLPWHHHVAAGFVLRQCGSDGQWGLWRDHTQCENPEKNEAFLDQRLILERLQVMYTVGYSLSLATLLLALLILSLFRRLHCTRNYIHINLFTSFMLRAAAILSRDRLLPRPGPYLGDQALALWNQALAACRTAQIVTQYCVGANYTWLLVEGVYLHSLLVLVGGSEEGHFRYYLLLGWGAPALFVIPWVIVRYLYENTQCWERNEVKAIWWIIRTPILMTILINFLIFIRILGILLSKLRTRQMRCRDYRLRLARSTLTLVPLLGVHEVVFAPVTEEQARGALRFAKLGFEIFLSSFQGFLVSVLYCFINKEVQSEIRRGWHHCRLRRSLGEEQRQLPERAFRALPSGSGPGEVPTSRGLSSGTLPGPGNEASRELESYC
Description: IC50 with 2% HSA over IC50 with 0.1% casein, 125I-hGIP competition, COS-7/hGIPR.
Description: (§1) After incubation, the cells were washed twice in ice-cold binding buffer (+/−2% HSA) and lysed using 200 mM NaOH with 1% SDS for 30 min. Nonspecific binding was determined as the binding of radioactive ligand to untransfected cells.

The target of test [2] is T1, human GIP receptor. Description: 125I-hGIP competition binding, COS-7/hGIPR, 2% HSA.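 Also: nonspecific binding defined as radioligand binding to untransfected cells.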
Description: as §1
Test [3] deals with T1, human GIP receptor. Description: 125I-hGIP competition binding, COS-7/hGIPR, 0.1% casein.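 Also: nonspecific binding defined as radioligand binding measured on untransfected cells.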
Description: as §1
For test [4], the target named is T1, human GIP receptor. Description: 125I-hGIP competition binding, COS-7 cells expressing hGIPR.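 Also: nonspecific binding taken as radioligand bound by untransfected cells, binding buffer with or without 2% HSA.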
Description: as §1
In test [5] the target is T1, human GIP receptor. The test can be described thus: cell-based or functional assay.

The text below walks through data of patent US20200087373A1 (UNIVERSITY OF COPENHAGEN, published 2020).

Values joined by “and” are separate entries in the source; they are usually repeats but may differ in a detail not shown here. Equal entries are not always repeated. Ends that are not written are not given here. * marks the point of attachment. C16 diacid = O=C(O)CCCCCCCCCCCCCCC(=O)*; C14 diacid = O=C(O)CCCCCCCCCCCCC(=O)*; Palmitoyl = CCCCCCCCCCCCCCCC(=O)*; Lauroyl = CCCCCCCCCCCC(=O)*

B1: AT118 [hGIP(5-30)NH2-C12/5] (peptide)
peptide: Lauroyl-TFISDYSIAMDKIHQQDFVNWLLAQK-NH2
SMILES: CCCCCCCCCCCC(=O)N[C@H](C(=O)N[C@@H](Cc1ccccc1)C(=O)N[C@H](C(=O)N[C@@H](CO)C(=O)N[C@@H](CC(=O)O)C(=O)N[C@@H](Cc1ccc(O)cc1)C(=O)N[C@@H](CO)C(=O)N[C@H](C(=O)N[C@@H](C)C(=O)N[C@@H](CCSC)C(=O)N[C@@H](CC(=O)O)C(=O)N[C@@H](CCCCN)C(=O)N[C@H](C(=O)N[C@@H](Cc1c[nH]cn1)C(=O)N[C@@H](CCC(N)=O)C(=O)N[C@@H](CCC(N)=O)C(=O)N[C@@H](CC(=O)O)C(=O)N[C@@H](Cc1ccccc1)C(=O)N[C@H](C(=O)N[C@@H](CC(N)=O)C(=O)N[C@@H](Cc1c[nH]c2ccccc12)C(=O)N[C@@H](CC(C)C)C(=O)N[C@@H](CC(C)C)C(=O)N[C@@H](C)C(=O)N[C@@H](CCC(N)=O)C(=O)N[C@@H](CCCCN)C(N)=O)C(C)C)[C@@H](C)CC)[C@@H](C)CC)[C@@H](C)CC)[C@@H](C)O
As a reminder, the IC50 is the concentration that inhibits the measured activity by half. The low end stands for greater potency, the high end for weaker potency. With B1, the “Fold change HSA (2%)/Casein (0.1%)” value in test [1] was 7.7 fold. For the same molecule, the IC50 amounted to 881 nM in test [2], 115 nM in test [3] and 102 nM in test [4]. In addition, the logIC50 was -6.1 log M in test [2] and -6.9 log M in test [3]. Also, the “log IC50” value in test [4] was -7 log M.

B2: AT133 [hGIP(5-30)NH2[K16R; H18K; K30R]-C16/5] (peptide)
peptide: Palmitoyl-TFISDYSIAMDRIKQQDFVNWLLAQR-NH2
SMILES: CCCCCCCCCCCCCCCC(=O)N[C@H](C(=O)N[C@@H](Cc1ccccc1)C(=O)N[C@H](C(=O)N[C@@H](CO)C(=O)N[C@@H](CC(=O)O)C(=O)N[C@@H](Cc1ccc(O)cc1)C(=O)N[C@@H](CO)C(=O)N[C@H](C(=O)N[C@@H](C)C(=O)N[C@@H](CCSC)C(=O)N[C@@H](CC(=O)O)C(=O)N[C@@H](CCCNC(=N)N)C(=O)N[C@H](C(=O)N[C@@H](CCCCN)C(=O)N[C@@H](CCC(N)=O)C(=O)N[C@@H](CCC(N)=O)C(=O)N[C@@H](CC(=O)O)C(=O)N[C@@H](Cc1ccccc1)C(=O)N[C@H](C(=O)N[C@@H](CC(N)=O)C(=O)N[C@@H](Cc1c[nH]c2ccccc12)C(=O)N[C@@H](CC(C)C)C(=O)N[C@@H](CC(C)C)C(=O)N[C@@H](C)C(=O)N[C@@H](CCC(N)=O)C(=O)N[C@@H](CCCNC(=N)N)C(N)=O)C(C)C)[C@@H](C)CC)[C@@H](C)CC)[C@@H](C)CC)[C@@H](C)O
Regarding B2, in test [1], the “Fold change HSA (2%)/Casein (0.1%)” value turned out to be 1.3 fold. In test [2], this molecule displayed an IC50 of 2200 nM and a logIC50 of -5.7 log M. In addition, in test [3], the IC50 came to 1720 nM and the logIC50 was -5.8 log M. Further, in test [4], the IC50 is 1720 nM and the “log IC50” value is -5.8 log M.

B3: AT188 [hGIP(5-30)NH2[A28K]-C16diacid/28] (peptide)
peptide: TFISDYSIAMDKIHQQDFVNWLLK(C16 diacid)QK-NH2
modifications: N-terminus assumed
SMILES: CC[C@H](C)[C@H](NC(=O)[C@H](CO)NC(=O)[C@H](Cc1ccc(O)cc1)NC(=O)[C@H](CC(=O)O)NC(=O)[C@H](CO)NC(=O)[C@@H](NC(=O)[C@H](Cc1ccccc1)NC(=O)[C@@H](N)[C@@H](C)O)[C@@H](C)CC)C(=O)N[C@@H](C)C(=O)N[C@@H](CCSC)C(=O)N[C@@H](CC(=O)O)C(=O)N[C@@H](CCCCN)C(=O)N[C@H](C(=O)N[C@@H](Cc1c[nH]cn1)C(=O)N[C@@H](CCC(N)=O)C(=O)N[C@@H](CCC(N)=O)C(=O)N[C@@H](CC(=O)O)C(=O)N[C@@H](Cc1ccccc1)C(=O)N[C@H](C(=O)N[C@@H](CC(N)=O)C(=O)N[C@@H](Cc1c[nH]c2ccccc12)C(=O)N[C@@H](CC(C)C)C(=O)N[C@@H](CC(C)C)C(=O)N[C@@H](CCCCNC(=O)CCCCCCCCCCCCCCC(=O)O)C(=O)N[C@@H](CCC(N)=O)C(=O)N[C@@H](CCCCN)C(N)=O)C(C)C)[C@@H](C)CC
In test [3], B3 yielded an IC50 of 26300 nM and a logIC50 of -4.6 log M. Further, in test [5], the “cAMP agonism” value is 152 nM; the “cAMP agonism, EC50 (log)” value is -7 log M and -6.8 log M; the “cAMP agonism, Emax” value was found to be 10; the “cAMP antagonism” value is 152 nM. Further, in test [5], the “cAMP antagonism, log” value was -6.8 log M. Also, in test [4], the IC50 came out at 183 nM; the “log IC50” value is -6.7 log M and -6.74 log M.

B4: AT135 [hGIP(5-30)NH2[K16R; K30R]-C16/5] (peptide)
peptide: Palmitoyl-TFISDYSIAMDRIHQQDFVNWLLAQR-NH2
SMILES: CCCCCCCCCCCCCCCC(=O)N[C@H](C(=O)N[C@@H](Cc1ccccc1)C(=O)N[C@H](C(=O)N[C@@H](CO)C(=O)N[C@@H](CC(=O)O)C(=O)N[C@@H](Cc1ccc(O)cc1)C(=O)N[C@@H](CO)C(=O)N[C@H](C(=O)N[C@@H](C)C(=O)N[C@@H](CCSC)C(=O)N[C@@H](CC(=O)O)C(=O)N[C@@H](CCCNC(=N)N)C(=O)N[C@H](C(=O)N[C@@H](Cc1c[nH]cn1)C(=O)N[C@@H](CCC(N)=O)C(=O)N[C@@H](CCC(N)=O)C(=O)N[C@@H](CC(=O)O)C(=O)N[C@@H](Cc1ccccc1)C(=O)N[C@H](C(=O)N[C@@H](CC(N)=O)C(=O)N[C@@H](Cc1c[nH]c2ccccc12)C(=O)N[C@@H](CC(C)C)C(=O)N[C@@H](CC(C)C)C(=O)N[C@@H](C)C(=O)N[C@@H](CCC(N)=O)C(=O)N[C@@H](CCCNC(=N)N)C(N)=O)C(C)C)[C@@H](C)CC)[C@@H](C)CC)[C@@H](C)CC)[C@@H](C)O
Take B4: the “Fold change HSA (2%)/Casein (0.1%)” value in test [1] amounted to 0.2 fold. In test [2], this molecule yielded an IC50 of 977 nM and a logIC50 of -6 log M. In test [3], this molecule came in with an IC50 of 5940 nM and a logIC50 of -5.2 log M. In test [4], the half-maximal inhibitory concentration (IC50) came out at 5940 nM and the “log IC50” value was -5.2 log M.

B5: AT134 [hGIP(5-30)NH2[K16R; H18K; K30R]-C16/18] (peptide)
peptide: TFISDYSIAMDRIK(Palmitoyl)QQDFVNWLLAQR-NH2
modifications: N-terminus assumed
SMILES: CCCCCCCCCCCCCCCC(=O)NCCCC[C@H](NC(=O)[C@@H](NC(=O)[C@H](CCCNC(=N)N)NC(=O)[C@H](CC(=O)O)NC(=O)[C@H](CCSC)NC(=O)[C@H](C)NC(=O)[C@@H](NC(=O)[C@H](CO)NC(=O)[C@H](Cc1ccc(O)cc1)NC(=O)[C@H](CC(=O)O)NC(=O)[C@H](CO)NC(=O)[C@@H](NC(=O)[C@H](Cc1ccccc1)NC(=O)[C@@H](N)[C@@H](C)O)[C@@H](C)CC)[C@@H](C)CC)[C@@H](C)CC)C(=O)N[C@@H](CCC(N)=O)C(=O)N[C@@H](CCC(N)=O)C(=O)N[C@@H](CC(=O)O)C(=O)N[C@@H](Cc1ccccc1)C(=O)N[C@H](C(=O)N[C@@H](CC(N)=O)C(=O)N[C@@H](Cc1c[nH]c2ccccc12)C(=O)N[C@@H](CC(C)C)C(=O)N[C@@H](CC(C)C)C(=O)N[C@@H](C)C(=O)N[C@@H](CCC(N)=O)C(=O)N[C@@H](CCCNC(=N)N)C(N)=O)C(C)C
As for B5, in test [1], the “Fold change HSA (2%)/Casein (0.1%)” value was determined as 5.5 fold. In test [2], this molecule gave an IC50 of 4890 nM and a logIC50 of -5.3 log M. Also, in test [3], the IC50 was found to be 882 nM and the logIC50 was -6.1 log M. In addition, in test [4], the IC50 is 882 nM and the “log IC50” value was -6.1 log M.

B6: AT136 [hGIP(5-30)NH2-C14diacid/5] (peptide)
peptide: {C14 diacid}-TFISDYSIAMDKIHQQDFVNWLLAQK-NH2
SMILES: CC[C@H](C)[C@H](NC(=O)[C@H](CO)NC(=O)[C@H](Cc1ccc(O)cc1)NC(=O)[C@H](CC(=O)O)NC(=O)[C@H](CO)NC(=O)[C@@H](NC(=O)[C@H](Cc1ccccc1)NC(=O)[C@@H](NC(=O)CCCCCCCCCCCCC(=O)O)[C@@H](C)O)[C@@H](C)CC)C(=O)N[C@@H](C)C(=O)N[C@@H](CCSC)C(=O)N[C@@H](CC(=O)O)C(=O)N[C@@H](CCCCN)C(=O)N[C@H](C(=O)N[C@@H](Cc1c[nH]cn1)C(=O)N[C@@H](CCC(N)=O)C(=O)N[C@@H](CCC(N)=O)C(=O)N[C@@H](CC(=O)O)C(=O)N[C@@H](Cc1ccccc1)C(=O)N[C@H](C(=O)N[C@@H](CC(N)=O)C(=O)N[C@@H](Cc1c[nH]c2ccccc12)C(=O)N[C@@H](CC(C)C)C(=O)N[C@@H](CC(C)C)C(=O)N[C@@H](C)C(=O)N[C@@H](CCC(N)=O)C(=O)N[C@@H](CCCCN)C(N)=O)C(C)C)[C@@H](C)CC
Consider B6, for which the “Fold change HSA (2%)/Casein (0.1%)” value in test [1] came to 15.7 fold. In addition, in test [2], the IC50 was 713 nM and the logIC50 was -6.1 log M. In test [3], this molecule came in with an IC50 of 45 nM and a logIC50 of -7.3 log M. Further, in test [4], the half-maximal inhibitory concentration (IC50) stood at 45.4 nM and the “log IC50” value was -7.3 log M.
